Experimental data as given in PMC4503747.
Where “and” joins values, the source holds several entries; their conditions need not be identical. Equal values may be shown once.

Target: GST-Yih1[2–258], overexpressed in yeast from a galactose-inducible promoter (S. cerevisiae) (UniProt P25637)
Test: pull-down; in vivo GST pull-down: GST fusions overexpressed in yeast from a galactose-inducible promoter (yih1Δ strains; gcn1Δ strain H2556 for the fragments; also cells arrested in G1 with α-factor and released), WCE (1-2 mg) on glutathione beads, immunoblot for endogenous proteins

Chain of GST-Yih1[2–258], overexpressed in yeast from a galactose-inducible promoter (S. cerevisiae) (P25637 2-258): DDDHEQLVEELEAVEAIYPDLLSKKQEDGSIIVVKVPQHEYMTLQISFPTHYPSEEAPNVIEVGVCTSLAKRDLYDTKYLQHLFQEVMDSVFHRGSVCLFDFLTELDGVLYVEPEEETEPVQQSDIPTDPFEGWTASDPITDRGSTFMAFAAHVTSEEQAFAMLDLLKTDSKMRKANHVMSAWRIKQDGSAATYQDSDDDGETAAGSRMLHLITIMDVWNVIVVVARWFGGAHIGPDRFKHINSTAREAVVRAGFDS

In the case of “Cdc28 (endogenous, yeast whole cell extract) (from UniProt P00546 1-298) (natural protein)”, the fold increase of precipitated Cdc28 relative to GST-Yih1 in S-G2/M (30, 60 and 90 minutes after release) against cells arrested in G1 with α-factor is reported as 2 fold and 3 fold.
